Laboratory results as given in publication PMC8298264, “Function of cofactor Akirin2 in the regulation of gene expression in model human neutrophil-like HL60 cells” (Bioscience Reports, 2021).

test system: human HL60 cells; test: SWATH-MS proteomics, differential protein representation, akirin2 KO vs WT HL60 cells; type: cell-based; settings: SWATH-MS, akirin2 KO vs WT HL60 cells; over-represented in KO
Method in brief: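 Read-out is label-free SWATH-MS protein area, globally normalized to total detected-protein area, with identifications held at 1% FDR against a library from information-dependent acquisition.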

Row | Molecule | Fold Change | Log (Fold Change)
1 | Hematopoietic lineage cell-specific protein (protein, UniProt P14317 1-486, looked up) Hematopoietic lineage …: MWKSVVGHDVSVSVETQGDDWDTDPDFVNDISEKEQRWGAKTIEGSGRTEHINIHQLRNKVSEEHDVLRKKEMESGPKASHGYGGRFGVERDRMDKSAVGHEYVAEVEKHSSQTDAAKGFGGKYGVERDRADKSAVGFDYKGEVEKHTSQKDYSRGFGGRYGVEKDKWDKAALGYDYKGETEKHESQRDYAKGFGGQYGIQKDRVDKSAVGFNEMEAPTTAYKKTTPIEAASSGTRGLKAKFESMAEEKRKREEEEKAQQVARRQQERKAVTKRSPEAPQPVIAMEEPAVPAPLPKKISSEAWPPVGTPPSSESEPVRTSREHPVPLLPIRQTLPEDNEEPPALPPRTLEGLQVEEEPVYEAEPEPEPEPEPEPENDYEDVEEMDRHEQEDEPEGDYEEVLEPEDSSFSSALAGSSGCPAGAGAGAVALGISAVAVYDYQGEGSDELSFDPDDVITDIEMVDEGWWRGRCHGHFGLFPANYVKLLE | 1.764 | 0.2466
2 | Serpin B10 (protein, UniProt P48595 1-397, looked up) Serpin B10: MDSLATSINQFALELSKKLAESAQGKNIFFSSWSISTSLTIVYLGAKGTTAAQMAQVLQFNRDQGVKCDPESEKKRKMEFNLSNSEEIHSDFQTLISEILKPNDDYLLKTANAIYGEKTYAFHNKYLEDMKTYFGAEPQPVNFVEASDQIRKDINSWVERQTEGKIQNLLPDDSVDSTTRMILVNALYFKGIWEHQFLVQNTTEKPFRINETTSKPVQMMFMKKKLHIFHIEKPKAVGLQLYYKSRDLSLLILLPEDINGLEQLEKAITYEKLNEWTSADMMELYEVQLHLPKFKLEDSYDLKSTLSSMGMSDAFSQSKADFSGMSSARNLFLSNVFHKAFVEINEQGTEAAAGSGSEIDIRIRVPSIEFNANHPFLFFIRHNKTNTILFYGRLCSP | 1.749 | 0.2428
3 | Annexin A5 (protein, UniProt P08758 2-320, looked up) Annexin A5: AQVLRGTVTDFPGFDERADAETLRKAMKGLGTDEESILTLLTSRSNAQRQEISAAFKTLFGRDLLDDLKSELTGKFEKLIVALMKPSRLYDAYELKHALKGAGTNEKVLTEIIASRTPEELRAIKQVYEEEYGSSLEDDVVGDTSGYYQRMLVVLLQANRDPDAGIDEAQVEQDAQALFQAGELKWGTDEEKFITIFGTRSVSHLRKVFDKYMTISGFQIEETIDRETSGNLEQLLLAVVKSIRSIPAYLAETLYYAMKGAGTDDHTLIRVMVSRSEIDLFNIRKEFRKNFATSLYSMIKGDTSGDYKKALLLLCGEDD | 1.702 | 0.231
4 | sp¦Q9P013¦CWC15_HUMAN (protein, UniProt Q9P013 2-229, looked up) Spliceosome-associated …: TTAARPTFEPARGGRGKGEGDLSQLSKQYSSRDLPSHTKIKYRQTTQDAPEEVRNRDFRRELEERERAAAREKNRDRPTREHTTSSSVSKKPRLDQIPAANLDADDPLTDEEDEDFEEESDDDDTAALLAELEKIKKERAEEQARKEQEQKAEEERIRMENILSGNPLLNLTGPSQPQANFKVKRRWDDDVVFKNCAKGVDDQKKDKRFVNDTLRSEFHKKFMEKYIK | 1.692 | 0.2285
5 | sp¦O75368¦SH3L1_HUMAN (protein, UniProt O75368 1-114, looked up) Adapter SH3BGRL: MVIRVYIASSSGSTAIKKKQQDVLGFLEANKIGFEEKDIAANEENRKWMRENVPENSRPATGYPLPPQIFNESQYRGDYDAFFEARENNAVYAFLGLTAPPGSKEAEVQAKQQA | 1.672 | 0.2233
6 | sp¦O43633¦CHM2A_HUMAN (protein, UniProt O43633 1-222, looked up) Charged multivesicular body …: MDLLFGRRKTPEELLRQNQRALNRAMRELDRERQKLETQEKKIIADIKKMAKQGQMDAVRIMAKDLVRTRRYVRKFVLMRANIQAVSLKIQTLKSNNSMAQAMKGVTKAMGTMNRQLKLPQIQKIMMEFERQAEIMDMKEEMMNDAIDDAMGDEEDEEESDAVVSQVLDELGLSLTDELSNLPSTGGSLSVAAGGKKAEAAASALADADADLEERLKNLRRD | 1.663 | 0.2209
7 | sp¦P30740¦ILEU_HUMAN (protein, UniProt P30740 1-379, looked up) Leukocyte elastase inhibitor: MEQLSSANTRFALDLFLALSENNPAGNIFISPFSISSAMAMVFLGTRGNTAAQLSKTFHFNTVEEVHSRFQSLNADINKRGASYILKLANRLYGEKTYNFLPEFLVSTQKTYGADLASVDFQHASEDARKTINQWVKGQTEGKIPELLASGMVDNMTKLVLVNAIYFKGNWKDKFMKEATTNAPFRLNKKDRKTVKMMYQKKKFAYGYIEDLKCRVLELPYQGEELSMVILLPDDIEDESTGLKKIEEQLTLEKLHEWTKPENLDFIEVNVSLPRFKLEESYTLNSDLARLGVQDLFNSSKADLSGMSGARDIFISKIVHKSFVEVNEEGTEAAAATAGIATFCMLMPEENFTADHPFLFFIRHNSSGSILFLGRFSSP | 1.651 | 0.2178
8 | sp¦P13693¦TCTP_HUMAN (protein, UniProt P13693 1-172, looked up) Translationally-controlled …: MIIYRDLISHDEMFSDIYKIREIADGLCLEVEGKMVSRTEGNIDDSLIGGNASAEGPEGEGTESTVITGVDIVMNHHLQETSFTKEAYKKYIKDYMKSIKGKLEEQRPERVKPFMTGAAEQIKHILANFKNYQFFIGENMNPDGMVALLDYREDGVTPYMIFFKDGLEMEKC | 1.634 | 0.2132
9 | sp¦P08246¦ELNE_HUMAN (protein, UniProt P08246 30-267, looked up) Neutrophil elastase: IVGGRRARPHAWPFMVSLQLRGGHFCGATLIAPNFVMSAAHCVANVNVRAVRVVLGAHNLSRREPTRQVFAVQRIFENGYDPVNLLNDIVILQLNGSATINANVQVAQLPAQGRRLGNGVQCLAMGWGLLGRNRGIASVLQELNVTVVTSLCRRSNVCTLVRGRQAGVCFGDSGSPLVCNGLIHGIASFVRGGCASGLYPDAFAPVAQFVNWIDSIIQRSEDNPCPHPRDPDPASRTH | 1.634 | 0.2132
10 | sp¦P04080¦CYTB_HUMAN (protein, UniProt P04080 1-98, looked up) Cystatin-B: MMCGAPSATQPATAETQHIADQVRSQLEEKENKKFPVFKAVSFKSQVVAGTNYFIKVHVGDEDFVHLRVFQSLPHENKPLTLSNYQTNKAKHDELTYF | 1.628 | 0.2117
11 | Eosinophil cationic protein (protein, UniProt P12724 28-160, looked up) Eosinophil cationic protein: RPPQFTRAQWFAIQHISLNPPRCTIAMRAINNYRWRCKNQNTFLRTTFANVVNVCGNQSIRCPHNRTLNNCHRSRFRVPLLHCDLINPGAQNISNCTYADRPGRRFYVVACDNRDPRDSPRYPVVPVHLDTTI | 5.495 | 0.7399
12 | sp¦P40121¦CAPG_HUMAN (protein, UniProt P40121 1-348, looked up) Macrophage-capping protein: MYTAIPQSGSPFPGSVQDPGLHVWRVEKLKPVPVAQENQGVFFSGDSYLVLHNGPEEVSHLHLWIGQQSSRDEQGACAVLAVHLNTLLGERPVQHREVQGNESDLFMSYFPRGLKYQEGGVESAFHKTSTGAPAAIKKLYQVKGKKNIRATERALNWDSFNTGDCFILDLGQNIFAWCGGKSNILERNKARDLALAIRDSERQGKAQVEIVTDGEEPAEMIQVLGPKPALKEGNPEEDLTADKANAQAAALYKVSDATGQMNLTKVADSSPFALELLISDDCFVLDNGLCGKIYIWKGRKANEKERQAALQVAEGFISRMQYAPNTQVEILPQGHESPIFKQFFKDWK | 1.617 | 0.2088
13 | sp¦P30533¦AMRP_HUMAN (protein, UniProt P30533 35-357, looked up) Alpha-2-macroglobulin …: YSREKNQPKPSPKRESGEEFRMEKLNQLWEKAQRLHLPPVRLAELHADLKIQERDELAWKKLKLDGLDEDGEKEARLIRNLNVILAKYGLDGKKDARQVTSNSLSGTQEDGLDDPRLEKLWHKAKTSGKFSGEELDKLWREFLHHKEKVHEYNVLLETLSRTEEIHENVISPSDLSDIKGSVLHSRHTELKEKLRSINQGLDRLRRVSHQGYSTEAEFEEPRVIDLWDLAQSANLTDKELEAFREELKHFEAKIEKHNHYQKQLEIAHEKLRHAESVGDGERVSRSREKHALLEGRTKELGYTVKKHLQDLSGRISRARHNEL | 1.604 | 0.2053
14 | sp¦P24534¦EF1B_HUMAN (protein, UniProt P24534 2-225, looked up) Elongation factor 1-beta: GFGDLKSPAGLQVLNDYLADKSYIEGYVPSQADVAVFEAVSSPPPADLCHALRWYNHIKSYEKEKASLPGVKKALGKYGPADVEDTTGSGATDSKDDDDIDLFGSDDEEESEEAKRLREERLAQYESKKAKKPALVAKSSILLDVKPWDDETDMAKLEECVRSIQADGLVWGSSKLVPVGYGIKKLQIQCVVEDDKVGTDMLEEQITAFEDYVQSMDVAAFNKI | 1.59 | 0.2013
15 | sp¦O95816¦BAG2_HUMAN (protein, UniProt O95816 2-211, looked up) BAG family molecular …: AQAKINAKANEGRFCRSSSMADRSSRLLESLDQLELRVEALREAATAVEQEKEILLEMIHSIQNSQDMRQISDGEREELNLTANRLMGRTLTVEVSVETIRNPQQQESLKHATRIIDEVVNKFLDDLGNAKSHLMSLYSACSSEVPHGPVDQKFQSIVIGCALEDQKKIKRRLETLLRNIENSDKAIKLLEHSKGAGSKTLQQNAESRFN | 1.58 | 0.1985
16 | sp¦Q9Y2Z0¦SGT1_HUMAN (protein, UniProt Q9Y2Z0 2-365, looked up) Protein SGT1 homolog: AAAAAGTATSQRFFQSFSDALIDEDPQAALEELTKALEQKPDDAQYYCQRAYCHILLGNYCVAVADAKKSLELNPNNSTAMLRKGICEYHEKNYAAALETFTEGQKLDIETGFHRVGQAGLQLLTSSDPPALDSQSAGITGADANFSVWIKRCQEAQNGSESEVWTHQSKIKYDWYQTESQVVITLMIKNVQKNDVNVEFSEKELSALVKLPSGEDYNLKLELLHPIIPEQSTFKVLSTKIEIKLKKPEAVRWEKLEGQGDVPTPKQFVADVKNLYPSSSPYTRNWDKLVGEIKEEEKNEKLEGDAALNRLFQQIYSDGSDEVKRAMNKSFMESGGTVLSTNWSDVGKRKVEINPPDDMEWKKY | 1.579 | 0.1983
17 | sp¦Q15370¦ELOB_HUMAN (protein, UniProt Q15370 1-118, looked up) Elongin-B: MDVFLMIRRHKTTIFTDAKESSTVFELKRIVEGILKRPPDEQRLYKDDQLLDDGKTLGECGFTSQTARPQAPATVGLAFRADDTFEALCIEPFSSPPELPDVMKPQDSGSSANEQAVQ | 1.578 | 0.1982
